Test results from PMC9079172, “BAG6 prevents the aggregation of neurodegeneration-associated fragments of TDP43” (iScience, 2022).

Molecular target: T1, BAG6, wild type, FLAG-tagged, exogenously overexpressed (pRK5-FLAG-Bag6) (UniProt P46379 1-1132)
T1 construct: BAG6, wild type, from pRK5-FLAG-Bag6 (Liu et al., 2014); In HEK293T cells the anti-BAG6 antibody also precipitates endogenous BAG6; also called wild type BAG6; ^fBAG6; source: HEK293T or BAG6-KO HEK293T, transfected, in lysate; not shown: FLAG, N-terminal, kept
T1 sequence (P46379 whole entry): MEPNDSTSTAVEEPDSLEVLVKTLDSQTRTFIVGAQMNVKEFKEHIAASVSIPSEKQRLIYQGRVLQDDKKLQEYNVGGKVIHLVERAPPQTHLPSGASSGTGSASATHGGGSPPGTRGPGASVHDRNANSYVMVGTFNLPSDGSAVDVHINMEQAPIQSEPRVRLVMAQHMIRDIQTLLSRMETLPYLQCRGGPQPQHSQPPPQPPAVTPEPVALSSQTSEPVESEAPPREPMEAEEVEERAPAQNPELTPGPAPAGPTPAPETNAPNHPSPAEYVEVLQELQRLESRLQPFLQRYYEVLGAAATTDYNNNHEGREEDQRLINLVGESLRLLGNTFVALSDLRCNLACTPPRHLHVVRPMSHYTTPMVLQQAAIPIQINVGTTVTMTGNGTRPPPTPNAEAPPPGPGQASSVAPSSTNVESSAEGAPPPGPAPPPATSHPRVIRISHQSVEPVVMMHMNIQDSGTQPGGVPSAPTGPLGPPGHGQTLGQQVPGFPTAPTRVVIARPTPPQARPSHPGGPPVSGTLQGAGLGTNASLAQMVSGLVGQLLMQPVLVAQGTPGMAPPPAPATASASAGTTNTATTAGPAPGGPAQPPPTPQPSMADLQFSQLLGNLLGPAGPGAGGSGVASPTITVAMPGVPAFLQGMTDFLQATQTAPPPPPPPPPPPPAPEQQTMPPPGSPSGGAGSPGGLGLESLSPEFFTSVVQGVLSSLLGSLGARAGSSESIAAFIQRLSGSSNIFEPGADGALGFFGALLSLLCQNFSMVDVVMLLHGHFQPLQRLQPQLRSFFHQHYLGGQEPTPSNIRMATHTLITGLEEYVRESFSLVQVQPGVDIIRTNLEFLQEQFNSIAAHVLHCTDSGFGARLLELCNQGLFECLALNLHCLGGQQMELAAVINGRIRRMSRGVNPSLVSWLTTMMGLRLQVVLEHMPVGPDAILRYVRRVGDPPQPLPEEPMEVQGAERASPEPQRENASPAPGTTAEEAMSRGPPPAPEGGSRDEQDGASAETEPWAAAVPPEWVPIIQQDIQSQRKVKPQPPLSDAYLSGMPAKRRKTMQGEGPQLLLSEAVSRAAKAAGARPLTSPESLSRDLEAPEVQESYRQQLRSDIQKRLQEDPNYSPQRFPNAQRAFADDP
Assay: co-IP; anti-BAG6 IP from soluble fractions of HEK293T cells overexpressing the fragments and BAG6 or BAG6ΔUBL; blots with anti-TDP43, anti-FLAG or anti-Myc; lysis/wash buffer 50 mM HEPES pH 7.5, 10% glycerol, 0.05% NP-40, 150 mM NaCl, 4°C
Settings: partners not purified

B1: TDP43^219 (Val^219-TDP43^f), C-terminal fragment of human TDP43, amino acids 219 - 414, bearing N-terminal Val and a C-terminal FLAG tag (domain or fragment, UniProt Q13148 219-414, looked up)
chain: VVFIPKPFRAFAFVTFADDQIAQSLCGEDLIIKGISVHISNAEPKHNSNRQLERSGRFGGNPGGFGNQGGFGNSRGGGAGLGNNQGSNMGGGMNFGAFSINPAMMAAAQAALQSSWGMMGMLASQQNQSGPSGNNQNQGNMQREPNQAFGSGNNSYSGSNSGAAIGWGSASNAGSGSGFNGGFGSSMDSKSSGWGM
notes: the part up to the last residue of Ub is cut off co-translationally; not shown: FLAG, C-terminal, kept
fold affinity relative to TDP43^247 (densitometry of the co-immunoprecipitate): ~5 fold
